T1: FcγRIIa(R) (human, UniProt P12318 34-217)
T1 construct: extracellular domain; also called 2aR
T1 sequence: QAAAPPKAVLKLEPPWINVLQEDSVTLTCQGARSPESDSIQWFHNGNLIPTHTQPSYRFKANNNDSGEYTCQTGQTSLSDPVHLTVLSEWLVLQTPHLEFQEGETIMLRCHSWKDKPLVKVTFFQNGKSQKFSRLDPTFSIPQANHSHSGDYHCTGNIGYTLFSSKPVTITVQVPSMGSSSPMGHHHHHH

T2: FcγRIIb (human, UniProt P31994 43-217)
T2 construct: extracellular domain; also called 2b
T2 sequence: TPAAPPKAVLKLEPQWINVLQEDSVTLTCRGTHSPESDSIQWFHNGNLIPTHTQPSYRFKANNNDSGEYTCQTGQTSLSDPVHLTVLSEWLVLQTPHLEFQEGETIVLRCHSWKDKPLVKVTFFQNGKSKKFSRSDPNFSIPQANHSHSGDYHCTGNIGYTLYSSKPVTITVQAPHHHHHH

T3: FcγRIIa(H) (human, UniProt P12318 34-217)
T3 construct: extracellular domain; also called 2aH
T3 sequence: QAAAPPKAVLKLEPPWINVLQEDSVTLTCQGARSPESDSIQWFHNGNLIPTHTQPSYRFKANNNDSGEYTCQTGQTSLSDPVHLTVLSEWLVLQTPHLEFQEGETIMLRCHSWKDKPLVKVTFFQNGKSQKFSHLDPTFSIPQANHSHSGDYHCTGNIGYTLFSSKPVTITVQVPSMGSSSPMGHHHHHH

B1: GpH7-A5/GpH7-B3 variant S324_11K/GpL16-k0 (antibody, human IgG1, kappa)
heavy 1: not shown
heavy 2: not shown
light: DIVMTQSPLSLPVTPGEPASISCQASESLVHSNRNTYLHWYLQKPGQSPQLLIYKVSNRFSGVPDRFSGSGSGTDFTLKISRVEAEDVGVYYCSQNTHVPPTFGQGTKVEIERTVAAPSVFIFPPSDEQLKSGTASVVCLLNNFYPREAKVQWKVDNALQSGNSQESVTEQDSKDSTYSLSSTLTLSKADYEKHKVYACEVTHQGLSSPVTKSFNRGEC
notes: He Ab: heterodimerized IgG1, one H chain mutated
B2: GpH7-A5/GpH7-B3 variant Y296_07I/GpL16-k0 (antibody, human IgG1, kappa)
heavy 1: not shown
heavy 2: not shown
light: DIVMTQSPLSLPVTPGEPASISCQASESLVHSNRNTYLHWYLQKPGQSPQLLIYKVSNRFSGVPDRFSGSGSGTDFTLKISRVEAEDVGVYYCSQNTHVPPTFGQGTKVEIERTVAAPSVFIFPPSDEQLKSGTASVVCLLNNFYPREAKVQWKVDNALQSGNSQESVTEQDSKDSTYSLSSTLTLSKADYEKHKVYACEVTHQGLSSPVTKSFNRGEC
notes: as for B1
B3: GpH7-A5/GpH7-B3 variant Y296_10E/GpL16-k0 (antibody, human IgG1, kappa)
heavy 1: not shown
heavy 2: not shown
light: DIVMTQSPLSLPVTPGEPASISCQASESLVHSNRNTYLHWYLQKPGQSPQLLIYKVSNRFSGVPDRFSGSGSGTDFTLKISRVEAEDVGVYYCSQNTHVPPTFGQGTKVEIERTVAAPSVFIFPPSDEQLKSGTASVVCLLNNFYPREAKVQWKVDNALQSGNSQESVTEQDSKDSTYSLSSTLTLSKADYEKHKVYACEVTHQGLSSPVTKSFNRGEC
notes: as for B1
B4: GpH7-A5/GpH7-B3 variant Y296_01G/GpL16-k0 (antibody, human IgG1, kappa)
heavy 1: not shown
heavy 2: not shown
light: DIVMTQSPLSLPVTPGEPASISCQASESLVHSNRNTYLHWYLQKPGQSPQLLIYKVSNRFSGVPDRFSGSGSGTDFTLKISRVEAEDVGVYYCSQNTHVPPTFGQGTKVEIERTVAAPSVFIFPPSDEQLKSGTASVVCLLNNFYPREAKVQWKVDNALQSGNSQESVTEQDSKDSTYSLSSTLTLSKADYEKHKVYACEVTHQGLSSPVTKSFNRGEC
notes: as for B1
B5: GpH7-A5/GpH7-B3 variant S324_12R/GpL16-k0 (antibody, human IgG1, kappa)
heavy 1: not shown
heavy 2: not shown
light: DIVMTQSPLSLPVTPGEPASISCQASESLVHSNRNTYLHWYLQKPGQSPQLLIYKVSNRFSGVPDRFSGSGSGTDFTLKISRVEAEDVGVYYCSQNTHVPPTFGQGTKVEIERTVAAPSVFIFPPSDEQLKSGTASVVCLLNNFYPREAKVQWKVDNALQSGNSQESVTEQDSKDSTYSLSSTLTLSKADYEKHKVYACEVTHQGLSSPVTKSFNRGEC
notes: as for B1
B6: GpH7-A5/GpH7-B3 variant Y296_04F/GpL16-k0 (antibody, human IgG1, kappa)
heavy 1: not shown
heavy 2: not shown
light: DIVMTQSPLSLPVTPGEPASISCQASESLVHSNRNTYLHWYLQKPGQSPQLLIYKVSNRFSGVPDRFSGSGSGTDFTLKISRVEAEDVGVYYCSQNTHVPPTFGQGTKVEIERTVAAPSVFIFPPSDEQLKSGTASVVCLLNNFYPREAKVQWKVDNALQSGNSQESVTEQDSKDSTYSLSSTLTLSKADYEKHKVYACEVTHQGLSSPVTKSFNRGEC
notes: as for B1
B7: GpH7-A5/GpH7-B3 variant Y296_09D/GpL16-k0 (antibody, human IgG1, kappa)
heavy 1: not shown
heavy 2: not shown
light: DIVMTQSPLSLPVTPGEPASISCQASESLVHSNRNTYLHWYLQKPGQSPQLLIYKVSNRFSGVPDRFSGSGSGTDFTLKISRVEAEDVGVYYCSQNTHVPPTFGQGTKVEIERTVAAPSVFIFPPSDEQLKSGTASVVCLLNNFYPREAKVQWKVDNALQSGNSQESVTEQDSKDSTYSLSSTLTLSKADYEKHKVYACEVTHQGLSSPVTKSFNRGEC
notes: as for B1
B8: GpH7-A5/GpH7-B3 variant Y296_03V/GpL16-k0 (antibody, human IgG1, kappa)
heavy 1: not shown
heavy 2: not shown
light: DIVMTQSPLSLPVTPGEPASISCQASESLVHSNRNTYLHWYLQKPGQSPQLLIYKVSNRFSGVPDRFSGSGSGTDFTLKISRVEAEDVGVYYCSQNTHVPPTFGQGTKVEIERTVAAPSVFIFPPSDEQLKSGTASVVCLLNNFYPREAKVQWKVDNALQSGNSQESVTEQDSKDSTYSLSSTLTLSKADYEKHKVYACEVTHQGLSSPVTKSFNRGEC
notes: as for B1
B9: GpH7-A5/GpH7-B3 variant S324_16H/GpL16-k0 (antibody, human IgG1, kappa)
heavy 1: not shown
heavy 2: not shown
light: DIVMTQSPLSLPVTPGEPASISCQASESLVHSNRNTYLHWYLQKPGQSPQLLIYKVSNRFSGVPDRFSGSGSGTDFTLKISRVEAEDVGVYYCSQNTHVPPTFGQGTKVEIERTVAAPSVFIFPPSDEQLKSGTASVVCLLNNFYPREAKVQWKVDNALQSGNSQESVTEQDSKDSTYSLSSTLTLSKADYEKHKVYACEVTHQGLSSPVTKSFNRGEC
notes: as for B1
B10: GpH7-A5/GpH7-B3 variant Y296_02A/GpL16-k0 (antibody, human IgG1, kappa)
heavy 1: not shown
heavy 2: not shown
light: DIVMTQSPLSLPVTPGEPASISCQASESLVHSNRNTYLHWYLQKPGQSPQLLIYKVSNRFSGVPDRFSGSGSGTDFTLKISRVEAEDVGVYYCSQNTHVPPTFGQGTKVEIERTVAAPSVFIFPPSDEQLKSGTASVVCLLNNFYPREAKVQWKVDNALQSGNSQESVTEQDSKDSTYSLSSTLTLSKADYEKHKVYACEVTHQGLSSPVTKSFNRGEC
notes: as for B1
B11: GpH7-A5/GpH7-B3 variant S324_15Y/GpL16-k0 (antibody, human IgG1, kappa)
heavy 1: not shown
heavy 2: not shown
light: DIVMTQSPLSLPVTPGEPASISCQASESLVHSNRNTYLHWYLQKPGQSPQLLIYKVSNRFSGVPDRFSGSGSGTDFTLKISRVEAEDVGVYYCSQNTHVPPTFGQGTKVEIERTVAAPSVFIFPPSDEQLKSGTASVVCLLNNFYPREAKVQWKVDNALQSGNSQESVTEQDSKDSTYSLSSTLTLSKADYEKHKVYACEVTHQGLSSPVTKSFNRGEC
notes: as for B1
B12: GpH7-A5/GpH7-B3 variant S324_19Q/GpL16-k0 (antibody, human IgG1, kappa)
heavy 1: not shown
heavy 2: not shown
light: DIVMTQSPLSLPVTPGEPASISCQASESLVHSNRNTYLHWYLQKPGQSPQLLIYKVSNRFSGVPDRFSGSGSGTDFTLKISRVEAEDVGVYYCSQNTHVPPTFGQGTKVEIERTVAAPSVFIFPPSDEQLKSGTASVVCLLNNFYPREAKVQWKVDNALQSGNSQESVTEQDSKDSTYSLSSTLTLSKADYEKHKVYACEVTHQGLSSPVTKSFNRGEC
notes: as for B1
B13: GpH7-A5/GpH7-B3 variant Y296_06M/GpL16-k0 (antibody, human IgG1, kappa)
heavy 1: not shown
heavy 2: not shown
light: DIVMTQSPLSLPVTPGEPASISCQASESLVHSNRNTYLHWYLQKPGQSPQLLIYKVSNRFSGVPDRFSGSGSGTDFTLKISRVEAEDVGVYYCSQNTHVPPTFGQGTKVEIERTVAAPSVFIFPPSDEQLKSGTASVVCLLNNFYPREAKVQWKVDNALQSGNSQESVTEQDSKDSTYSLSSTLTLSKADYEKHKVYACEVTHQGLSSPVTKSFNRGEC
notes: as for B1
B14: GpH7-A5/GpH7-B3 variant S324_18N/GpL16-k0 (antibody, human IgG1, kappa)
heavy 1: not shown
heavy 2: not shown
light: DIVMTQSPLSLPVTPGEPASISCQASESLVHSNRNTYLHWYLQKPGQSPQLLIYKVSNRFSGVPDRFSGSGSGTDFTLKISRVEAEDVGVYYCSQNTHVPPTFGQGTKVEIERTVAAPSVFIFPPSDEQLKSGTASVVCLLNNFYPREAKVQWKVDNALQSGNSQESVTEQDSKDSTYSLSSTLTLSKADYEKHKVYACEVTHQGLSSPVTKSFNRGEC
notes: as for B1
B15: GpH7-A5/GpH7-B3 variant Y296_08L/GpL16-k0 (antibody, human IgG1, kappa)
heavy 1: not shown
heavy 2: not shown
light: DIVMTQSPLSLPVTPGEPASISCQASESLVHSNRNTYLHWYLQKPGQSPQLLIYKVSNRFSGVPDRFSGSGSGTDFTLKISRVEAEDVGVYYCSQNTHVPPTFGQGTKVEIERTVAAPSVFIFPPSDEQLKSGTASVVCLLNNFYPREAKVQWKVDNALQSGNSQESVTEQDSKDSTYSLSSTLTLSKADYEKHKVYACEVTHQGLSSPVTKSFNRGEC
notes: as for B1

How the values were obtained:
Experiment in all cases: SPR, relative to GpH7-A5/GpH7-B3/GpL16-k0 =100
FcγRIa = molecular target: T4, FcγRIa (human, UniProt P12314 16-292)
T4 construct: extracellular domain; also called 1a

FcγRIIa(R) = molecular target: T1, FcγRIIa(R)
FcγRIIb = molecular target: T2, FcγRIIb
FcγRIIa(H) = molecular target: T3, FcγRIIa(H)

T4 sequence (P12314 other isoform, or with tags, fused parts or gaps): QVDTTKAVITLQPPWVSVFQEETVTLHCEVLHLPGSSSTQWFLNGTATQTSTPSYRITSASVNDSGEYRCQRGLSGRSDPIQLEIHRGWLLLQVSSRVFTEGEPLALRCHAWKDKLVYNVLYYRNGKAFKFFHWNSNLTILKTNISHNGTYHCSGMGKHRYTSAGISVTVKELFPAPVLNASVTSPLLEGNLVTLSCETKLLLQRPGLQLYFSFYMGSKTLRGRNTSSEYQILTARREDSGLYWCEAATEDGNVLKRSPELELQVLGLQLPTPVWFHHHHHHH

Binder | He/Con 1a (FcγRIa) [%] | He/Con 2aR (FcγRIIa(R)) [%] | He/Con 2b (FcγRIIb) [%] | He/Con 2aH (FcγRIIa(H)) [%]
B1 | 96.3 | 91 | 89.6 | 102
B2 | 101 | 96.7 | 85.5 | 92.7
B3 | 102 | 98.2 | 99.4 | 94
B4 | 99.4 | 91.6 | 80.4 | 91.6
B5 | 95.9 | 84 | 82.4 | 107
B6 | 101 | 105 | 101 | 97.8
B7 | 103 | 101 | 100 | 102
B8 | 101 | 92 | 80.4 | 86.9
B9 | 106 | 105 | 109 | 113
B10 | 99.8 | 93 | 83.1 | 89.1
B11 | 107 | 107 | 115 | 114
B12 | 106 | 86.8 | 87.2 | 106
B13 | 101 | 96.8 | 89 | 94.2
B14 | 109 | 101 | 106 | 109
B15 | 101 | 93.7 | 83.5 | 86.9

— patent US20260167699A1 (Chugai, published 2026)
